Assay results published in paper PMC3566092.

What was measured:
[1] = biological target: Recombinant His-tagged WIP1ΔEx6 (UniProt O15297)
[2] = biological target: Recombinant His-tagged WIP1ΔEx6 (UniProt O15297); remark: listed apart in the source

Sequence of GST-Tax (P03409 whole entry): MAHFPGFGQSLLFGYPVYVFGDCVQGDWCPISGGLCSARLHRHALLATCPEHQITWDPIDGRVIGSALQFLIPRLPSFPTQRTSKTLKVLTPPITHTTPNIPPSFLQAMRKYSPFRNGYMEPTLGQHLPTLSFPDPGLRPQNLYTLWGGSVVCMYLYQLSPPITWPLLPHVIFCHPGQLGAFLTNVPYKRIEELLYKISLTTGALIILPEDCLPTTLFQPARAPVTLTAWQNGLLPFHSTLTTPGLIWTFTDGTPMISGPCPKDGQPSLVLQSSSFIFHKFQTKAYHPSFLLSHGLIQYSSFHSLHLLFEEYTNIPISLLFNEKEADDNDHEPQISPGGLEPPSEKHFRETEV

## GST-Tax (from UniProt P03409 1-353) (natural protein)
[1]
  in vitro phosphatase assay: free phosphate released from the H2AX (pS139) phosphopeptide by His-WIP1 (20 ng) with GST-Tax (100 ng), against His-WIP1 alone or with GST: 2 fold
[2]
  in vitro phosphatase assay: free phosphate released from the p38 (pT180) phosphopeptide by His-WIP1 with GST-Tax, against His-WIP1 alone: 2 fold
